From publication PMC2752837

Tests used:
Assay in all cases: purified protein
Conditions in all cases: 50 mM CHES pH 9.5, 10 mM DTT, 37 °C
[1] = tested on: N=C(N)NCCC[C@H](N)C(=O)NO
N=C(N)NOCC[C@H](N)C(=O)O = tested on: N=C(N)NOCC[C@H](N)C(=O)O
[2] = tested on: N=C(N)NCCCC[C@H](N)C(=O)O
[3] = tested on: N=C(NO)NCCC[C@H](N)C(=O)O
[4] = tested on: CCOC(=O)[C@H](CCCNC(=N)N)NC(=O)c1ccccc1

**Q.** Which results are given for “truncated PAD (peptidylarginine deiminase, 43-amino acid N-terminal deletion) (Porphyromonas gingivalis W83)”?
**A.** Km [1]: (6.9 ± 0.5)×10^3 µM; kcat [1]: 0.15 s⁻¹; Km (N=C(N)NOCC[C@H](N)C(=O)O): (6 ± 1)×10^3 µM; kcat (N=C(N)NOCC[C@H](N)C(=O)O): 0.0052 s⁻¹; kcat/Km (N=C(N)NOCC[C@H](N)C(=O)O): 0.93 M⁻¹ s⁻¹; Km [2]: (4.7 ± 0.8)×10^3 µM; kcat [2]: 0.11 s⁻¹; kcat/Km [2]: 24 M⁻¹ s⁻¹; Km [3]: (1.5 ± 0.5)×10^3 µM; kcat [3]: 0.0046 s⁻¹; kcat/Km [3]: 3 M⁻¹ s⁻¹; Km [4]: (18 ± 1)×10^3 µM; kcat/Km [4]: 0.99 M⁻¹ s⁻¹
